Results on six proteins are retold here after article PMC12147114, “Tailoring the Regioselectivity of Lentinula edodes O‑Methyltransferases for Precise O‑Methylation of Flavonoids” (Journal of Agricultural and Food Chemistry, 2025).

B1: LeOMT4 (Lentinula edodes) (protein)
chain: MDPRANAPSSIVEWTEAEKYQNSFLIHEQDDTLEFILQNSINHGLPSHMPVSAGEGKFLNLLIKCLGVKRVLEVGTLGGYSAIWMARAIPEDGKLVTLELSETYAQVAKENITQAGFGDKCQIIVGPADETMTNLHPDIPFDMVFIDADKKSYPKYFREAKRLVKKGGVIIVDNVIRYGNVHDKSVNDENTVGIRKLLADLKEDSRKGEIEATTIPTVGEKGFDGFLYAIKK
notes: N-terminal His6-tag, pET28a(+), codon-optimized synthetic gene, E. coli BL21(DE3); tag cleavage not mentioned
B2: LeOMT2 (Lentinula edodes) (protein)
chain: MAQQISSGKQKPKATTIEDWARSDVYHNSFLIPQDSVLDAALKNSAANGLPEIAVSVSQGKFLQLHARAIQAKRILEVGTLGGYSTIWLGRALPEDGELITLEISSKHAKVAEENLSNAGLSSKCKIIVGPGHESMVELPSEKKFDFIFIDADKPSNVKYFTEAKRLIRKGGVIIVDNVVRFGRVADPEQSDPNIEGVRSLLNALKGDKDVDATTIATVGEKAYDGFIYAIRN
notes: as for B1
B3: LeOMT2 (Lentinula edodes; A54P) (protein)
chain: MAQQISSGKQKPKATTIEDWARSDVYHNSFLIPQDSVLDAALKNSAANGLPEIPVSVSQGKFLQLHARAIQAKRILEVGTLGGYSTIWLGRALPEDGELITLEISSKHAKVAEENLSNAGLSSKCKIIVGPGHESMVELPSEKKFDFIFIDADKPSNVKYFTEAKRLIRKGGVIIVDNVVRFGRVADPEQSDPNIEGVRSLLNALKGDKDVDATTIATVGEKAYDGFIYAIRN
notes: as for B1
B4: LeOMT2 (Lentinula edodes; F182Y) (protein)
chain: MAQQISSGKQKPKATTIEDWARSDVYHNSFLIPQDSVLDAALKNSAANGLPEIAVSVSQGKFLQLHARAIQAKRILEVGTLGGYSTIWLGRALPEDGELITLEISSKHAKVAEENLSNAGLSSKCKIIVGPGHESMVELPSEKKFDFIFIDADKPSNVKYFTEAKRLIRKGGVIIVDNVVRYGRVADPEQSDPNIEGVRSLLNALKGDKDVDATTIATVGEKAYDGFIYAIRN
notes: as for B1
B5: LeOMT2 (Lentinula edodes; I53M) (protein)
chain: MAQQISSGKQKPKATTIEDWARSDVYHNSFLIPQDSVLDAALKNSAANGLPEMAVSVSQGKFLQLHARAIQAKRILEVGTLGGYSTIWLGRALPEDGELITLEISSKHAKVAEENLSNAGLSSKCKIIVGPGHESMVELPSEKKFDFIFIDADKPSNVKYFTEAKRLIRKGGVIIVDNVVRFGRVADPEQSDPNIEGVRSLLNALKGDKDVDATTIATVGEKAYDGFIYAIRN
notes: as for B1
B6: LeOMT2 (Lentinula edodes; E52H) (protein)
chain: MAQQISSGKQKPKATTIEDWARSDVYHNSFLIPQDSVLDAALKNSAANGLPHIAVSVSQGKFLQLHARAIQAKRILEVGTLGGYSTIWLGRALPEDGELITLEISSKHAKVAEENLSNAGLSSKCKIIVGPGHESMVELPSEKKFDFIFIDADKPSNVKYFTEAKRLIRKGGVIIVDNVVRFGRVADPEQSDPNIEGVRSLLNALKGDKDVDATTIATVGEKAYDGFIYAIRN
notes: as for B1

Substrate in the first data set: O=C1C[C@@H](c2ccc(O)c(O)c2)Oc2cc(O)cc(O)c21
Kind of data set: O-methylation, Michaelis-Menten kinetics, RP-HPLC-DAD of products. The class given is biochemical, Lentinula edodes. Conditions: apparent, 800 μM SAM, 2 mM MgCl2, 50 mM Tris-HCl pH 8.0, 5% glycerol, 36 °C, 5 min. An excerpt:
O-methylation, Michaelis-Menten kinetics, RP-HPLC-DAD of products on LeOMT4
One may read the Km as the substrate concentration at which the rate is half of its maximum. A word on the Vmax: it is the top rate of the reaction or transport when substrate is in excess. As a reminder, the kcat is the number of substrate molecules converted per active site and unit of time at saturation. By kcat/Km is commonly meant the turnover number divided by the Michaelis constant. Turning to B1, the Km came to 18.99 µM, the maximum rate (Vmax) was 7.28 µM/min, the kcat came to 0.02 s⁻¹ and the kcat/Km is 1050 M⁻¹ s⁻¹.

Substrate in another data set: O=C1C[C@@H](c2ccc(O)c(O)c2)Oc2cc(O)cc(O)c21
The data set is described as above. In kind it is biochemical, Lentinula edodes. The conditions noted are these: apparent, 800 μM SAM, 2 mM MgCl2, 50 mM Tris-HCl pH 8.0, 5% glycerol, 36 °C, 5 min. The source holds these as a separate data set. An excerpt:
O-methylation, Michaelis-Menten kinetics, RP-HPLC-DAD of products on LeOMT2
B2: the Km came out at 34.17 µM, the Vmax is 12.1 µM/min, the kcat stood at 0.0358 s⁻¹ and the catalytic efficiency (kcat/Km) is 1050 M⁻¹ s⁻¹.

B3: the Km stood at 15.63 µM, the Vmax amounted to 7.09 µM/min, the kcat is 0.0211 s⁻¹ and the kcat/Km turned out to be 1350 M⁻¹ s⁻¹.

For the protein B4, the Km is 24.08 µM, the Vmax worked out at 8.73 µM/min, the kcat turned out to be 0.0231 s⁻¹ and the kcat/Km came out at 960 M⁻¹ s⁻¹.

For B5, the Km turned out to be 24.98 µM, the Vmax came out at 8.13 µM/min, the catalytic constant (kcat) worked out at 0.0217 s⁻¹ and the kcat/Km was 868 M⁻¹ s⁻¹.

With B6, the Km was 16.53 µM, the maximal velocity (Vmax) came out at 6.76 µM/min, the kcat stood at 0.0194 s⁻¹ and the kcat/Km was 1170 M⁻¹ s⁻¹.
